Where two headings read alike, the source gives them in different places. Blank lines part the entries; values can stand above or below the binder they belong to.
Legend:
[1] = molecular target: T1, human BMP-11 (GDF-11; R&D Systems) (human, UniProt O95390 299-407); experiment: SPR Format A; 100 nM BMP11 alone
T1 sequence (looked up): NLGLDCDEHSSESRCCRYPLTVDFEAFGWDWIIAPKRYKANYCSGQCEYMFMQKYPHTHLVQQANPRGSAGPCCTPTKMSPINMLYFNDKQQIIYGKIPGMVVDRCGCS
Procedure: (§1) Competition SPR: Competitive binding assays to evaluate the ability of anti-myostatin Adnectins to compete with Type I and Type II receptors for binding to myostatin or BMP11, as a surrogate for myostatin, were also conducted using SPR on a Biacore T100 instrument, in two different experimental formats. In “SPR Format A”, sensor chip surfaces were prepared by immobilizing 100 ug/ml protein A (Pierce) in 10 mM acetate pH 4.5 to 4500 RU on a CM5 sensor chip (Biacore/GE Healthcare) using standard ethyl(dimethylaminopropyl) carbodiimide (EDC)/N-hydroxysuccinimide (NHS) chemistry, with ethanolamine blocking. […] The running buffer for immobilization and competition experiments was 10 mM HEPES, 150 mM NaCl, 3 mM EDTA, and 0.05% v/v Surfactant P20, pH 7.4, and surfaces were regenerated between cycles using two injections of 10 mM glycine pH 1.5 for 30 s at 30 μl/min.

[2] = molecular target: T1, human BMP-11 (GDF-11; R&D Systems); experiment: SPR Format B; immobilized BMP11 with pre-bound PRD-1474 as competitor
Procedure: (§2) Adnectin competition using “SPR format B”: The mechanism of action for anti-myostatin Adnectins was further evaluated in “SPR Format B”, where myostatin or BMP11 (10 μg/ml in 10 mM acetate pH 4.5) were directly immobilized on a CM5 sensor chip surface using EDC/NHS coupling chemistry to a density of 985 RU (myostatin) or 530 RU (BMP11). […] The running buffer for immobilization and competition experiments was 10 mM HEPES, 150 mM NaCl, 3 mM EDTA, and 0.05% v/v Surfactant P20, pH 7.4, and surfaces were regenerated between cycles using 4 injections of 50 mM NaOH for 15 s at 30 μl/min.

[3] = molecular target: T1, human BMP-11 (GDF-11; R&D Systems); experiment: SPR Format A; 100 nM BMP11 with 200 nM ATI-1523 as competitor
Procedure: as §1

[4] = molecular target: T1, human BMP-11 (GDF-11; R&D Systems); experiment: SPR Format B; immobilized BMP11, no pre-bound PRD-1474
Procedure: as §2

[5] = molecular target: T2, human myostatin (mature, recombinant; R&D Systems) (human, UniProt O14793 267-375); experiment: competitive HTRF, alanine scan
T2 construct: biotinylated in the mRNA display selection; also called GDF-8; mature myostatin
T2 sequence: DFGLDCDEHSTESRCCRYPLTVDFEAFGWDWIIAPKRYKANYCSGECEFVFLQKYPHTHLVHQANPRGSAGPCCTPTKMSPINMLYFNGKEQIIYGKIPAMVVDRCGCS

[6] = molecular target: T2, human myostatin (mature, recombinant; …); experiment: HTRF competition binding assay, alanine mutant against 3116_A06
[7] = molecular target: T2, human myostatin (mature, recombinant; …); experiment: cell-based or functional assay
[8] = molecular target: T2, human myostatin (mature, recombinant; …); experiment: cell-based or functional assay; remark: listed apart in the source
[9] = molecular target: T3, human Activin A (R&D Systems) (human, UniProt P08476 311-426); experiment: cell-based or functional assay
T3 sequence (looked up): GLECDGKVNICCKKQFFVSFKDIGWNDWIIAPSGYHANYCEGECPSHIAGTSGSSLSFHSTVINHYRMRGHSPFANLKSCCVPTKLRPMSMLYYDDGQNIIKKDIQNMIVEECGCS

[10] = molecular target: T1, human BMP-11 (GDF-11; R&D Systems); experiment: cell-based or functional assay
[11] = molecular target: T2, human myostatin (mature, recombinant; …); experiment: cell-based or functional assay; remark: listed apart in the source
[12] = molecular target: T2, human myostatin (mature, recombinant; …); experiment: competitive HTRF (1889E01/myostatin/ActRIIb-Fc sandwich)
Excerpt: An HTRF assay was used to measure the binding affinities of anti-myostatin Adnectins to myostatin. […] The Eu-W 1024 labeled Streptavidin is used to bind biotinylated 1889E01. […] In the presence of a competitive Adnectin, the HTRF signal decreases.

[13] = molecular target: T3, human Activin A (R&D Systems); experiment: SPR format B, 37C
Procedure: (§3) A concentration range of anti-myostatin Adnectins was applied in HBSP running buffer. Regeneration of the chip surface between cycles was accomplished with 60 seconds of 10-50 mM NaOH. Kinetic traces of reference-subtracted sensorgrams were fit to a 1:1 binding model using Biaevaluation software. For Fc-formatted Adnectins, interaction kinetics are driven by avidity of bivalent Fc and dimeric myostatin even at low immobilization density. The data shown in Table 12 indicate that some of the Adnectins run in this SPR format bind myostatin and BMP-11 and also activin with similar affinities.

[14] = molecular target: T1, human BMP-11 (GDF-11; R&D Systems); experiment: SPR format B, 37C
Procedure: as §3

[15] = molecular target: T2, human myostatin (mature, recombinant; …); experiment: SPR format B, 37C
Procedure: as §3

[16] = molecular target: T3, human Activin A (R&D Systems); experiment: cell-based or functional assay; remark: listed apart in the source
[17] = molecular target: T1, human BMP-11 (GDF-11; R&D Systems); experiment: cell-based or functional assay; remark: listed apart in the source
[18] = molecular target: T2, human myostatin (mature, recombinant; …); experiment: cell-based or functional assay; remark: listed apart in the source
[19] = molecular target: T3, human Activin A (R&D Systems); experiment: SPR format A, 25C
Outline: (§4)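 Fc-fusion captured on an anti-human Fc antibody CM5 surface; anti-myostatin Adnectin injected over a concentration range in HBSP buffer. Regeneration used two 30 s pulses of 3M MgCl₂; reference-subtracted sensorgrams fitted to a 1:1 binding model.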

[20] = molecular target: T1, human BMP-11 (GDF-11; R&D Systems); experiment: SPR format A, 25C
Outline: as §4

[21] = molecular target: T2, human myostatin (mature, recombinant; …); experiment: SPR format A, 25C
Outline: as §4

[22] = molecular target: T2, human myostatin (mature, recombinant; …); experiment: cell-based or functional assay; remark: listed apart in the source
[23] = molecular target: T3, human Activin A (R&D Systems); experiment: cell-based or functional assay; remark: listed apart in the source

SPR binding response (normalized) [1]: 100%
SPR binding response (normalized) [2]: 65%
SPR binding response (normalized) [3]: 31%
SPR binding response (normalized) [4]: 100%
B1: ALK5-Fc (R&D Systems) (Fc fusion, UniProt P36897 34-125, looked up, not shown: a dimerising Fc or GST)
chain: LQCFCHLCTKDNFTCVTDGLCFVSVTETTDKVIHNSMCIAEIDLIPRDRPFVCAPSSKTGSVTTTYCCNQDHCNKIELPTTVKSSPGLGPVE

IC50 [5]: 5.1 nM
fold increase in IC50 relative to the parental sequence (WT) [6]: > 10 fold
ARE-luciferase cell-based assay, IC50 relative to parent sequence [7]: > 10 fold
Myostatin ARE-luc IC50 [8]: 40 nM
B2: 3116_A06 G30A (designed binder)
chain: MGVSDVPRDLEVVAATPTSLLISWSLPHQAKANYYRITYGETGGNSPVQEFTVPGRGVTATISGLKPGVDYTITVYAVTVTDTGYLKYKPISINYRTEIDKPSQHHHHHH

IC50 [5]: 4.9 nM
fold increase in IC50 relative to the parental sequence (WT) [6]: > 10 fold
ARE-luciferase cell-based assay, IC50 relative to parent sequence [7]: > 10 fold
Myostatin ARE-luc IC50 [8]: 32 nM
B3: 3116_A06 T81A (designed binder)
chain: MGVSDVPRDLEVVAATPTSLLISWSLPHQGKANYYRITYGETGGNSPVQEFTVPGRGVTATISGLKPGVDYTITVYAVTVADTGYLKYKPISINYRTEIDKPSQHHHHHH

IC50 [5]: 4 nM
fold increase in IC50 relative to the parental sequence (WT) [6]: > 10 fold
Myostatin ARE-luc IC50 [8]: > 100 nM
B4: 3116_A06 V80A (designed binder)
chain: MGVSDVPRDLEVVAATPTSLLISWSLPHQGKANYYRITYGETGGNSPVQEFTVPGRGVTATISGLKPGVDYTITVYAVTATDTGYLKYKPISINYRTEIDKPSQHHHHHH

IC50 [5]: 11 nM
fold increase in IC50 relative to the parental sequence (WT) [6]: > 10 fold
Myostatin ARE-luc IC50 [8]: > 100 nM
B5: 3116_A06 Y88A (designed binder)
chain: MGVSDVPRDLEVVAATPTSLLISWSLPHQGKANYYRITYGETGGNSPVQEFTVPGRGVTATISGLKPGVDYTITVYAVTVTDTGYLKAKPISINYRTEIDKPSQHHHHHH

SPR binding response (normalized) [1]: 100%
SPR binding response (normalized) [2]: 30%
SPR binding response (normalized) [3]: 2%
SPR binding response (normalized) [4]: 100%
B6: ALK4-Fc (R&D Systems) (Fc fusion, UniProt P36896 24-126, looked up, not shown: a dimerising Fc or GST)
chain: SGPRGVQALLCACTSCLQANYTCETDGACMVSIFNLDGMEHHVRTCIPKVELVPAGKPFYCLSSEDLRNTHCCYTDYCNRIDLRVPSGHLKEPEHPSMWGPVE
notes: also called activin receptor-like kinase 4 Fc

ARE-luciferase IC50 [9]: > 1000 nM
ARE-luciferase IC50 [10]: 6 nM
ARE-luciferase IC50 [11]: 0.28 nM
IC50 [12]: 0.28 nM
Kd [13]: 6.5 nM
Kd [14]: 6.9 nM
Kd [15]: 3.6 nM
B7: ATI-1339 [40K 4-branch PEG] (designed binder)
chain: MGVSDVPRDLEVVAATPTSLLISWTLPHAGRAHYYRITYGETGGNSPVQEFTVPGRGVTATISGLKPGVDYTITVYAVTVTTTKVIHYKPISINYRTEGSGCHHHHHH
modifications: 40K 4-branch PEG on the Cys of the EGSGC tail
notes: cysteine mutant of 2987_H07

ARE-luciferase IC50 [16]: > 2000 nM
ARE-luciferase IC50 [17]: 46 nM
ARE-luciferase IC50 [18]: 4.2 nM
binding result [19]: no binding
Kd [20]: 10.7 nM
Kd [21]: 1.47 nM
pSmad2 IC50, 12-point [22]: 0.78 nM
B8: 2523_G06 (designed binder)
chain: MGVSDVPRDLEVVAATPTSLLISWWAPLGLARYYRITYGETGGNSPVQEFTVPGRGSTATISGLKPGVDYTITVYAVTIFRTGMVQYDPISINYRTEIDKPSQHHHHHH

Kd [20]: 8.8 nM
Kd [21]: 4.18 nM
ARE-luciferase IC50 [10]: 0.15 nM
ARE-luciferase IC50 [11]: 0.08 nM
IC50 [12]: 0.28 nM
ARE-luciferase IC50 [23]: 110 nM
B9: ATI-1276 [40K 2-branch PEG] (designed binder)
chain: MGVSDVPRDLEVVAATPTSLLISWYLPYPAHMNYYRITYGETGGNSPVQEFTVPGRGLTATISGLKPGVDYTITVYAVTLTKSQILHHRPISINYRTEGSGCHHHHHH
modifications: 40K 2-branch PEG on the Cys of the EGSGC tail
notes: cysteine mutant of 2524_D09

Kd [20]: 3.3 nM
Kd [21]: 6.04 nM
ARE-luciferase IC50 [10]: 1.1 nM
ARE-luciferase IC50 [11]: 0.27 nM
IC50 [12]: 0.54 nM
ARE-luciferase IC50 [23]: > 2000 nM
B10: ATI-1278 [40K 2-branch PEG] (designed binder)
chain: MGVSDVPRDLEVVAATPTSLLISWSLPYAGHLNYYRITYGETGGNSPVQEFTVPGRGVTATISGLKPGVDYTITVYAVTLTKSQLIHYMPISINYRTEGSGCHHHHHH
modifications: 40K 2-branch PEG on the Cys of the EGSGC tail
notes: cysteine mutant of 2525_D05

SPR binding response (normalized) [1]: 100%
SPR binding response (normalized) [3]: 189%
B11: ActRIIB-Fc (produced in house) (Fc fusion, UniProt Q13705 19-134, looked up, not shown: a dimerising Fc or GST)
chain: SGRGEAETRECIYYNANWELERTNQSGLERCEGEQDKRLHCYASWRNSSGTIELVKKGCWLDDFNCYDRQECVATEENPQVYFCCCEGNFCNERFTHLPEAGGPEVTYEPPPTAPT

SPR binding response (normalized) [2]: 92%
SPR binding response (normalized) [4]: 100%
B12: ActRIIB-monomer (produced in house) (receptor, UniProt Q13705 19-134, looked up)
chain: SGRGEAETRECIYYNANWELERTNQSGLERCEGEQDKRLHCYASWRNSSGTIELVKKGCWLDDFNCYDRQECVATEENPQVYFCCCEGNFCNERFTHLPEAGGPEVTYEPPPTAPT

binding result [19]: no binding
Kd [20]: ~300 nM
Kd [21]: 128 nM
ARE-luciferase IC50 [9]: > 2000 nM
ARE-luciferase IC50 [10]: 888 nM
ARE-luciferase IC50 [11]: 19 nM
B13: ATI-1107 [40K 2-branch PEG] (designed binder)
chain: MGVSDVPRDLEVVAATPTSLLISWSLPHAGHVNYYRITYGETGGNSPVQEFTVPGRGVTATISGLKPGVDYTITVYAVTLTKSQMIHYMPISINYRTGSGCHHHHHH
modifications: 40K 2-branch PEG on the Cys of the GSGC tail
notes: cysteine mutant of 1979_B06

— patent publication US20170088602A1 (Bristol-Myers Squibb, published 2017)
